Experiment [1] has as its target T1, soluble dimeric FcγRIIB-Fc fusion protein (extracellular domain of FcγRIIB fused to hinge-CH2-CH3 of human … (human, UniProt P31994 43-217)).
T1 construct: extracellular domain; also called FcRIIB-Fc; 2bfcagl; not shown: human IgG2 hinge-CH2-CH3
T1 sequence (looked up): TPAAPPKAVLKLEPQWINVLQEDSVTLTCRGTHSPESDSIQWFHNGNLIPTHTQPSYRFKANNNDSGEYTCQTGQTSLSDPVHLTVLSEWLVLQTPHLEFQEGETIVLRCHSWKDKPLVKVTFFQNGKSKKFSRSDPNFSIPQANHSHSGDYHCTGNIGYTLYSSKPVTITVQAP
Nature of the experiment: SPR (BIAcore), Fc mutant in ch4-4-20, off rate relative to wild type. Background: Surface plasmon resonance follows binding to a sensor surface in real time, without labels.

The target of another experiment is T2, CD16A(F158) (human, UniProt P08637 17-208).
T2 construct: extracellular domain; Construct as told for the BIAcore assays of Section 7.7; also called 3aF158
T2 sequence (P08637 17-208): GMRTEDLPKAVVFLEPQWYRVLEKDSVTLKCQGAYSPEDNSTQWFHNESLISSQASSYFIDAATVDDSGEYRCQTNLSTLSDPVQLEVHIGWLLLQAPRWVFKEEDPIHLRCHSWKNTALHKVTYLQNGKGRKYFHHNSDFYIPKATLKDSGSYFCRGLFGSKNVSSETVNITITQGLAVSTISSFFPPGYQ
Kind of experiment: relative off-rate wt/variant; method not given (BIAcore elsewhere).

Another experiment deals with T3, CD32B-G2Ag (human, UniProt P31994 43-217).
T3 construct: extracellular domain; Soluble dimeric protein as told for Section 7.7; also called FcγRIIB-Fc fusion protein; 2bFcagl; not shown: human IgG2 hinge-CH2-CH3 domain
T3 sequence (looked up): T1 sequence (looked up)
The experiment is described as above.

The target of a further experiment is T4, CD32A-G2Ag (human, UniProt P12318 34-217).
T4 construct: extracellular domain; Soluble dimeric protein as told for Section 7.7 (there 131H); also called FcγRIIA-Fc fusion protein; 2aFcagl; not shown: human IgG2 hinge-CH2-CH3 domain
T4 sequence (looked up): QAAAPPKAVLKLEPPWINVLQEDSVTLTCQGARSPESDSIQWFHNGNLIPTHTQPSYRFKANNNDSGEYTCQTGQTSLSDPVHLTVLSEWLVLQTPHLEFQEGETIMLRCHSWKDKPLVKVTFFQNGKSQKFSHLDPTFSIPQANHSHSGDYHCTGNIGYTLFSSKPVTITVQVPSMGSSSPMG
The experiment is described as above.

The target in another experiment is T5, CD16A(V158) (human, UniProt P08637 17-208).
T5 construct: extracellular domain; Construct as told for the BIAcore assays of Section 7.7; also called FcγRIIIA 158V; 3aV158
T5 sequence (P08637 17-208 F176V): as the sequence (P08637 17-208) above, with F160V counted along it
The experiment is described as above.

Another experiment concerns the target T6, CD16A (158F) (human, UniProt P08637 17-208).
T6 construct: extracellular domain; Soluble monomeric construct as told for the ch4D5 BIAcore assays of section 7.7
Kind of experiment: off-rate ratio vs wild-type Fc (BIAcore per the filing's koff tables).

The next experiment deals with T7, CD32A (131R) (human, UniProt P12318 34-217).
T7 construct: extracellular domain; Soluble dimeric fusion as told for FcγRIIA in section 7.7 (there for 131H); also called FcγRIIA 131R; not shown: hinge-CH2-CH3 domain of human IgG2
T7 sequence (looked up): T4 sequence (looked up) with H134R
The experiment is described as above.

For another experiment, the target named is T8, CD32B (human, UniProt P31994 43-217).
T8 construct: extracellular domain; Soluble dimeric fusion as told for the ch4D5 BIAcore assays of section 7.7; also called FcγRIIB; FcγRII-B; not shown: hinge-CH2-CH3 domain of human IgG2
T8 sequence (looked up): T1 sequence (looked up)
The description is as above.

The target in the next experiment is T9, CD16A (158V) (human, UniProt P08637 17-208).
T9 construct: extracellular domain; Soluble monomeric construct as told for the ch4D5 BIAcore assays of section 7.7; also called FcγRIIIA 158V; FcγRIIIA V158
T9 sequence (P08637 17-208 F176V): as the sequence (P08637 17-208) above, with F160V counted along it
Described as above.

The target in a further experiment is T10, CD32A (131H) (human, UniProt P12318 34-217).
T10 construct: extracellular domain; Soluble dimeric fusion as told for the ch4D5 BIAcore assays of section 7.7; also called FcγRIIA 131H; not shown: hinge-CH2-CH3 domain of human IgG2
T10 sequence (looked up): T4 sequence (looked up)
Described as above.

Experiment [2] concerns the target T11, FcγRIIIA, soluble monomeric protein (extracellular region joined to the linker-AVITAG sequence) (human, UniProt P08637 17-208).
T11 construct: extracellular domain; also called FcRIIIA; FcR3A
Kind of experiment: ELISA. In general terms: An ELISA detects its analyte on a solid surface through an enzyme-linked reagent.

Experiment [3] deals with T11, FcγRIIIA, soluble monomeric protein …. Nature of the experiment: ELISA. The source holds these as a separate data set.

Positions count from the first letter of the chain named. In names and notes the source's numbering stands.

T6 sequence (P08637 17-208): as the sequence (P08637 17-208) above
T11 sequence (P08637 17-208 F176V limits assumed, form in doubt): as the sequence (P08637 17-208) above, with F160V counted along it

B1: ch4-4-20 MgFc66 (A330V, V427M) (antibody)
chain 1: not shown
chain 2: DVVMTQTPLSLPVSLGDQASISCRSSQSLVHSNGNTYLRWYLQKPGQSPKVLIYKVSNRFSGVPDRFSGSGSGTDFTLKISRVEAEDLGVYFCSQSTHVPWTFGGGTKLEIKRTVAAPSVFIFPPSDEQLKSGTASVVCLLNNFYPREAKVQWKVDNALQSGNSQESVTEQDSKDSTYSLSSTLTLSKADYEKHKVYACEVTHQGLSSPVTKSFNRGEC
Take B1: the “Koff WT/Mut” value in experiment [1] is 0.62.

B2: Antibody 2B6 3.5 Fc Variant 49 (F243L, R292P, Y300L, V305I, P396L) (antibody)
heavy: QVQLVQSGAEVKKPGASVKVSCKASGYTFTNYWIHWVRQAPGQGLEWIGVIDPSDTYPNYNKKFKGRVTMTVDTSTSTAYMELRSLRSDDTAVYYCARNGDSDYYSGMDYWGQGTTVTVSSASTKGPSVFPLAPSSKSTSGGTAALGCLVKDYFPEPVTVSWNSGALTSGVHTFPAVLQSSGLYSLSSVVTVPSSSLGTQTYICNVNHKPSNTKVDKRVEPKSCDKTHTCPPCPAPELLGGPSVFLLPPKPKDTLMISRTPEVTCVVVDVSHEDPEVKFNWYVDGVEVHNAKTKPPEEQYNSTLRVVSILTVLHQDWLNGKEYKCKVSNKALPAPIEKTISKAKGQPREPQVYTLPPSRDELTKNQVSLTCLVKGFYPSDIAVEWESNGQPENNYKTTPLVLDSDGSFFLYSKLTVDKSRWQQGNVFSCSVMHEALHNHYTQKSLSLSPGK
light: EIVLTQSPDFQSVTPKEKVTFTCRTSQSIGTNIHWYQQKPDQSPKLLIKEVSESISGVPSRFSGSGSGTDFTLTINSLEAEDAATYYCQQSNTWPFTFGGGTKVEIKRTVAAPSVFIFPPSDEQLKSGTASVVCLLNNFYPREAKVQWKVDNALQSGNSQESVTEQDSKDSTYSLSSTLTLSKADYEKHKVYACEVTHQGLSSPVTKSFNRGEC
notes: Fc variant of m46; also called h2B6 3.5 0088; copies: 2 + 2
B2: the “Koff ratio (wt/mut)” value stood at 8.3 wt/mut with CD16A(F158), 3.2 wt/mut in the experiment with CD32B-G2Ag, 1.4 wt/mut with CD32A-G2Ag and 10.1 wt/mut with CD16A(V158).

B3: ch4D5-FcMT2 (antibody, human IgG1, kappa)
heavy: QVQLQQSGPELVKPGASLKLSCTASGFNIKDTYIHWVKQRPEQGLEWIGRIYPTNGYTRYDPKFQDKATITADTSSNTAYLQVSRLTSEDTAVYYCSRWGGDGFYAMDYWGQGASVTVSSASTKGPSVFPLAPSSKSTSGGTAALGCLVKDYFPEPVTVSWNSGALTSGVHTFPAVLQSSGLYSLSSVVTVPSSSLGTQTYICNVNHKPSNTKVDKRVEPKSCDKTHTCPPCPAPELVGGPSVFLLPPKPKDTLMISRTPEVTCVVVDVSHEDPEVKFNWYVDGVEVHNAKTKPPEEQYNSTLRVVSVLTVLHQDWLNGKEYKCKVSNKALPAPIEKTISKAKGQPREPQVYTLPPSRDELTKNQVSLTCLVKGFYPSDIAVEWESNGQPENNYKTTPLVLDSDGSFFLYSKLTVDKSRWQQGNVFSCSVMHEALHNHYTQKSLSLSPGK
light: DIVMTQSHKFMSTSVGDRVSITCKASQDVNTAVAWYQQKPGHSPKLLIYSASFRYTGVPDRFTGSRSGTDFTFTISSVQAEDLAVYYCQQHYTTPPTFGGGTKVEIKRTVAAPSVFIFPPSDEQLKSGTASVVCLLNNFYPREAKVQWKVDNALQSGNSQESVTEQDSKDSTYSLSSTLTLSKADYEKHKVYACEVTHQGLSSPVTKSFNRGEC
notes: Anti-Her2/neu; also called ch45D4-FcMT2; L235V F243L R292P Y300L P396L
On to B3, for which the “Wild-Type Koff/Mutant Koff” value was found to be 4.8 in the experiment with CD16A (158F); 0.4 with CD32A (131R); 0.4 with CD32B; 6.1 with CD16A (158V); 1.3 in the experiment with CD32A (131H).

B4: ch4D5 Fc Variants 19 and 20 (L235V, F243L, R292P, Y300L, P396L) (antibody)
heavy: B3 heavy
light: B3 light
notes: copies: 2 + 2
For the molecule B4, the “Koff ratio (wt/mut)” value was found to be 4.5 wt/mut with CD16A(F158), 0.5 wt/mut with CD32B-G2Ag, 1.3 wt/mut in the experiment with CD32A-G2Ag and 5.3 wt/mut with CD16A(V158).

B5: ch4D5 Fc variant L235P, F243L, R292P, Y300L, P396L (antibody)
heavy: B3 heavy with V238P
light: B3 light
notes: One of the series of variants of ch4D5-FcMT2
With B5, the “Wild-Type Koff/Mutant Koff” value in the experiment with CD16A (158F) is 2.5; in the experiment with CD32A (131R), 0.2; in the experiment with CD32B, 0.2; with CD32A (131H) it was 0.7.

B6: ch4D5 Fc variant L235T, F243L, R292P, Y300L, P396L (antibody)
heavy: B3 heavy with V238T
light: B3 light
notes: as for B5
Consider B6, for which the “Wild-Type Koff/Mutant Koff” value with CD16A (158F) turned out to be 2.8; with CD32A (131R) it was 0.3; in the experiment with CD32B it was 0.3; with CD16A (158V), 4.2; with CD32A (131H) it was 0.9.

B7: Fc variant K334E, T359N, T366S (antibody)
chain: ASTKGPSVFPLAPSSKSTSGGTAALGCLVKDYFPEPVTVSWNSGALTSGVHTFPAVLQSSGLYSLSSVVTVPSSSLGTQTYICNVNHKPSNTKVDKKVEPKSCDKTHTCPPCPAPELLGGPSVFLFPPKPKDTLMISRTPEVTCVVVDVSHEDPEVKFNWYVDGVEVHNAKTKPREEQYNSTYRVVSVLTVLHQDWLNGKEYKCKVSNKALPAPIEETISKAKGQPREPQVYTLPPSRDELNKNQVSLSCLVKGFYPSDIAVEWESNGQPENNYKTTPPVLDSDGSFFLYSKLTVDKSRWQQGNVFSCSVMHEALHNHYTQKSLSLSPGK
On to B7, for which, in experiment [2], the “ELISA binding, fold vs WT” value came out at 1.5 fold. In experiment [3], the “fold change vs WT” value came out at 1.5 fold.

Values taken from patent US20120219551A1 (MacroGenics, published 2012).
